Results taken from the supplement of paper PMC12042874.
± gives the uncertainty stated by the source.

Assay: amyloid nucleation score (Sup35N fusion, yeast selection) (log enrichment); library NNK1; higher = more nucleation; inactive = no reads after selection
Summary of the method: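 Growth for 7 days at 30°C on medium lacking adenine and uracil followed a 24-hour induction with 100 μM copper sulfate of psi-negative yeast expressing peptides of 20 random codons fused to Sup35N. Input and output plasmid inserts were sequenced with Illumina, and sequences with under 100 input reads were excluded. Nucleation score is the DiMSum log enrichment of output over input reads, centred on the mode score of non-aggregating sequences.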

Substance | amyloid nucleation score
GGESQFLGFTHCKLAFCSWW | 0.236 ± 0.5
ITAWWQVSL | 0.565 ± 0.36
TYHVSEV | -0.175 ± 0.24
TFQLKMWEHVVLPDVSMAST | 0.669 ± 0.48
RFSSQTFY | -1.08 ± 2.4
AYSERTSGTMTRVWWDLRSR | -0.795 ± 1.1
MCYVRMTFGTRDCHERVSLS | inactive
LRWFPEAFNGAERESLASNL | -0.102 ± 0.52
CYYSRFHFAPISIMFCVNGG | 5.99 ± 0.076
ICSNGLLIMNVE | 1.13 ± 0.97
LINHIS | 0.444 ± 0.9
SNVVNFDNNEDYLDTCRYLI | 0.734 ± 0.97
LKMEYHVGRNWSLGKSRAPE | 0.335 ± 0.92
SIPRGFLLVLLVDNPTIRLQ | -0.358 ± 0.32
MLWFSGCPRGGQRGVCESQG | 0.284 ± 0.55
MYVFRVLASSVWKSMMLFDL | 0.146 ± 0.23
DLRNMKVNTQDVSFLSPRGG | 0.208 ± 0.29
RRVSLH | 0.416 ± 0.6
PSRWIAVPSMEVKVL | 0.16 ± 1.1
EIWWMVKVQLSVEYSSGNRL | 1.16 ± 0.39
VSETAFLNTNKWGPKCLMWN | -1.42 ± 1
LLMEFI | 1.46 ± 0.84
NGQRDIEYLSLFSPVGTMNS | -0.518 ± 0.43
PWTTG | 0.298 ± 0.24
SNYYWVAWGDSPLQVHP | 0.626 ± 0.81

Substance | amyloid nucleation score
VLRTGVH | 1.25 ± 0.66
LPYNHTQTVMDFIYFVFWLL | 0.698 ± 0.24
MCGFF | -0.178 ± 0.57
KMKLRHTSCRFSREVTDVY | 0.614 ± 0.32
SPIVGTLFYFMLWNMSAHTR | 1.96 ± 0.26
CVRLHPSDWAFYRAPFNKHG | 0.659 ± 0.55
IKRTCYPLVRGVPNQIRNLK | -0.091 ± 0.68
QQLALPPWSCLWQ | 0.095 ± 0.49
ICTVSLLYFVYDKYCHNATL | -0.444 ± 0.56
YTLILREIYWCC | -0.128 ± 0.54
TFGTKRRLGL | 1.47 ± 0.5
HLIDVTILGWDEVSIM | 1.26 ± 0.37
RTIIDESVTAFLIWFCYVTV | -0.21 ± 0.26
PYRYKSGWATTQSLRREQLD | -0.743 ± 1.3
MWGFWTFFDGLAYPFVMHKT | 0.054 ± 0.53
VYFGRISLWLNMH | -0.449 ± 0.59
RMLIDGLSLVVDWRYVVEGG | -0.192 ± 0.31
NIVNYFSCLKALNKFLHKMG | 0.609 ± 0.26
CGADVNVWMTIWHYLFIDRG | inactive
LVMLRCAMTLCSIMLNYTPR | 0.89 ± 0.39
FHPAMVVICILWHKR | 1.62 ± 0.37
DSMSRREQG | -0.437 ± 0.73
VLIGIWLHLGHFEPALSM | -0.133 ± 0.53
YSRNNIIHFRFISALLPEEV | 0.683 ± 0.37
WSTFYLFLSLDWKNYT | inactive

Substance | amyloid nucleation score
WVYMANRVEYRRASRNMS | inactive
RNSLNTLSPTARCSVSTFVR | 0.562 ± 1.2
LNSNPDCKTLFIHAWW | 0.282 ± 1.2
FVSPVTSSQNSPVIVVRSLL | -0.561 ± 0.48
CECRRANVADPFRVSCWAKF | 0.156 ± 1.2
NWGVSNRVVWGRVPMLSVPH | -0.284 ± 0.98
WKDRPRVCLFMLLNENGRQM | -0.831 ± 1.2
DSIGVTH | -0.002 ± 0.41
TPGNVG | 0.514 ± 0.26
FSPFLIMVSESPFHPIPELR | -0.991 ± 2.4
MEKYYGQLLKDY | 0.224 ± 0.29
AMWYMKCNTYKVWLGDMYLV | 0.193 ± 0.18
FHLWHLIVYILALY | -0.955 ± 0.77
GIWIRVSLAMRVTTSRRLGN | 2.57 ± 0.17
FCMTTSVSSNTLV | -0.013 ± 0.94
QYMLFMYLGVVLKCH | 0.644 ± 0.59
GLYSTGNFDVGRSLCDHMGS | -0.492 ± 1.1
ASRIHYWWS | 0.787 ± 0.25
LGQLNFLMWYPKYECRIYMG | 6.656 ± 0.058
LSYDEYPGMNASAAIQGLVV | -0.556 ± 1.4
SQFLLYSPINFLCFAENHNG | 6.36 ± 0.078
CAKGGPSGYKN | -1.41 ± 0.98
DRHRLPILVFLITNRTQRMV | -0.098 ± 1.3
TSNCGTSLIDHSVRLLMLQR | -0.163 ± 0.49
VAWSPLRSSKPGTLSTVGDT | 0.83 ± 1.1

Substance | amyloid nucleation score
LRILVITYILCT | -0.331 ± 0.42
LKYANLSMRYPWVKKYCKEN | -0.301 ± 0.51
INMRKYSNTGSGRLIFNFAF | 6.039 ± 0.052
CSVMSNARRIWDRMQLNGVK | -0.568 ± 0.33
VNGWARSMGGFLSCNSQRFG | -0.221 ± 0.65
LNVTQYVKGSEWKWGSTTSP | 0.176 ± 0.52
RLRFLNYTDAG | -1.2 ± 1.5
QISRLKHYQTHVRMLLTLEG | -0.068 ± 0.42
TCRFTHLLFWYFK | 0.246 ± 0.97
KWYERLCIRATLKATLGYFT | 0.055 ± 0.69
TSIMRVTILLISGGRLDVFL | -0.896 ± 1
RTSVLVSASALPNSLSFRQG | -0.647 ± 1.1
SRLIY | -0.894 ± 0.4
VFFSYINCLRF | 0.218 ± 0.45
FSDTRTGGDSTPKN | 0.108 ± 0.36
PGLMDLSVCKKCWNCCYTYD | -0.294 ± 0.65
SGAPYS | 0.185 ± 0.34
VVRAFLTLILAVIDEENGSE | -1.42 ± 2.7
LIVNRSKFLT | 0.625 ± 0.36
VHLSGFVSLNLTVVSIRCIA | 2.06 ± 0.31
NVNHSPSGMARRGSHRYKNS | -0.218 ± 0.34
PFIARAFKLMLAWVLFCRAA | 0.171 ± 0.75
NWGAISISDRGPQKTDTAWT | -0.048 ± 0.48
ERMGDSQGPKAGLWSFKYP | -0.226 ± 0.97
YDVLEDSHELMMCFCVRGHW | -0.155 ± 1

Substance | amyloid nucleation score
IRVSFIVQSCILSALEDALN | 2.68 ± 0.13
ETGSDEI | -0.55 ± 0.39
TCVGDCGCIGWSTIFFSDYS | 1.43 ± 0.72
FTSLYSNILHKSTCLQ | 0.288 ± 0.9
NKIQQGYMSPYCNHSVFVSF | -0.296 ± 0.65
TWSYGLASDEVGPDAVVIVY | 0.495 ± 1
QYSVHINNVTLRPKHRYVQ | -0.065 ± 0.29
PSPQWYGDDNVTSRWRLLAV | 0.548 ± 0.28
FSLNQCVKGHVFGATICTLR | 1.86 ± 0.43
ELGPRPHTFLEFAGICVGGM | -0.422 ± 1.4
VNDLSCIGVGGDAKDNREGN | 1.34 ± 0.48
TRWCVRERVSFKRAGQCDRV | inactive
GGDRGHMFGMKSATVRWLAY | 0.572 ± 0.45
NFVARSLLPNILAGLRGTGC | -0.139 ± 0.59
ETARLCRWSYK | 2.22 ± 0.18
RFRKHRFVVLLCYWCLVFRE | 0.766 ± 1.2
WCTTVRIRLYGSSIWRLFGA | 0.76 ± 0.45
HGLAYCGRQLFGARFILRYR | 0.255 ± 0.23
ASLKCEKGVCGVFGWSGVGH | -0.687 ± 1.4
TYTGFYCVRKLILVRRVSVW | -0.897 ± 1.6
DYCRLMAWLSL | 0.315 ± 0.51
SWGLGSFLY | 0.06 ± 0.36
DDLWSCMFELDAYMSFYLKA | inactive
VQIWAAELMTDRRK | 0.436 ± 1.2
LWMYYESFF | 0.843 ± 0.6

Substance | amyloid nucleation score
GSYGLDGILDQWTPLHSLGG | 0.64 ± 0.46
TIRARMVCLNCQMVR | 3.54 ± 0.079
AKMYLRTLYTSPLRLPLAPQ | -0.333 ± 1.4
LMVGVSRGSGWRCGPLGEGA | 0.035 ± 0.37
LAVFRCAARYYWNSFCLSRT | 0.03 ± 0.21
GYIDFCFLWD | -0.333 ± 0.21
WGICAVLHLMTIIGLIRVER | inactive
SVTWSYVTHLLLWLFGGAGL | 0.848 ± 0.76
TRALVFRQYYIAPVHCYYLG | 3.54 ± 0.19
VADAPMR | 0.944 ± 0.9
LLHGGY | -1.86 ± 2.4
MLNELWVQRWINLSLKYDNQ | 0.957 ± 0.45
CVELVLSCV | -0.095 ± 0.43
FQVFYFGCGRHVMVSSYRWV | -0.363 ± 0.54
NYNVTNNALADR | -0.368 ± 1.7
WLDAVGMAAG | -0.989 ± 2.7
DIYIMSNGLGYYFFSTNVRM | 2.55 ± 0.19
TCRDYCASVSEEQIWLMVYR | 0.297 ± 0.67
MRNYGILFPYLFYMSVSRVL | -0.067 ± 1.7
TRPLPWTQP | 0.242 ± 0.47
YIMILSYAVNKSYFTRLSCN | -0.459 ± 0.67
LICQLGEPQFNKFHWICSLD | -0.39 ± 1.7
GLSWGIFALDTRSPGILRSV | -0.436 ± 0.35
KPLILLCHLMGTMSTKCKDM | -0.098 ± 0.26
LNSKILGKSRTCDENSWPFV | -0.27 ± 0.51

Substance | amyloid nucleation score
SMRIFMMLQWYRGSNLCFFH | 0.537 ± 1.1
LIKYFNINYNGCSAVPWGSP | 5.981 ± 0.056
TLYPHTGEGGKRLDLGCLSR | 1.39 ± 0.48
IECCFAYGRYLMWVGMYGSK | 0.79 ± 0.59
DSADMLILILYAAVLLYTIF | -0.278 ± 0.69
VMAPERST | -0.905 ± 1.6
HHNNDSDYKLREN | 0.116 ± 0.48
SCARFITTNNQDSRLVASSN | -0.718 ± 0.77
TPTSSIPTPPRFPALTC | -0.72 ± 0.41
LRIHGSTLRISLW | 1.64 ± 0.28
NRYQRYVPTIEMEPNSSYGN | inactive
LWAFIIGIVSTTLLGYKPFH | -0.344 ± 1.1
PIDGTFL | -0.69 ± 0.62
PAVCLCNGRMDVSKNLWLCF | 7.445 ± 0.061
CCSRGLKVPDANRASKSGCE | 1.08 ± 0.52
KLIVWDKCSTCHSDVVLLFK | 0.734 ± 0.97
VDRVGIQYVLEWCSRRSGQV | 0.04 ± 1.4
KVCLRRAAYYRVLVHSCHFR | -0.585 ± 0.43
IYGAAFVAEGWTPTLSVGDK | 0.141 ± 0.39
RESGMTMHVVPQPLDTKTWC | 0.612 ± 0.72
THMGRTLSCFGMMSWSSDVA | 5.88 ± 0.065
